Data set [1] deals with lysosomal GCase in immortalized B-Lymphoblast cells derived from a Gaucher I patient (GM10870). Briefly: Lysosomal GCase activity by flow cytometry with LysoLive fluorogenic GCase substrate. In kind it is cell-based, human. The conditions noted are these: 48 hours; for lysosomal GCase activity compared to native drug SB216763: 1.0-5.0 uM, FIG. 14; for lysosomal GCase activity, Ambroxol and its targeted derivative: multiple concentrations, FIG. 15. Here is the method:
Immortalized B-Lymphoblast cells derived from a Gaucher I patient (GM10870, CCR) were incubated overnight in a CO2 incubator at 37° C./5% CO2. Equal numbers of cells (50,000 cells/well) were transferred to individual wells of 96-well tissue culture plates and treated with the native drug NSC 95397 or the organelle targeted NSC 95397 derivatives (M2770, M2771) at multiple concentrations (0.5-10 uM) and incubated at 37° C./5% CO2 for 48 hours. A lysosomal-targeted fluorogenic GCase substrate (MarkerGene™ LysoLive™ Lysosomal β-Glucosidase Assay Kit, Product M2775) was then added to the wells according to the manufacturer's instructions to a final concentration of 5 uM and cells were incubated a further 16 hours. DRAQ7 (dead-cell stain) was then added to the cells to a final concentration of 3 uM and cells immediately analyzed using a BD Accuri C6 flow cytometer, capturing 10000 live cell events and the median fluorescence of the stained cell populations graphed as shown in FIG. 13.
Immortalized B-Lymphoblast cells derived from a Gaucher I patient (GM10870, CCR) were incubated overnight in a CO2 incubator at 37° C./5% CO2. Equal numbers of cells (50,000 cells/well) were transferred to individual wells of 96-well tissue culture plates and treated with native drug SB216763 or the organelle targeted SB216763 derivatives (M2747, M2748) at multiple concentrations (1.0-5.0 uM) and incubated at 37° C./5% CO2 for 48 hours. A lysosomal-targeted fluorogenic GCase substrate (MarkerGene™ LysoLive™ Lysosomal β-Glucosidase Assay Kit, Product M2775) was then added to the wells according to the manufacturer's instructions to a final concentration of 5 uM and cells were incubated a further 16 hours. DRAQ7 (dead-cell stain) was then added to the cells to a final concentration of 3 uM and all cell wells immediately analyzed using a BD Accuri C6 flow cytometer, capturing 10000 live cell events and the median fluorescence of the stained cell populations graphed as shown in FIG. 14.
Immortalized B-lymphoblast cells derived from a Gaucher I patient leukocytes (GM10870, CCR) were incubated overnight in a CO2 incubator at 37° C./5% CO2. Equal numbers of cells (50,000 cells/well) were transferred to individual wells of 96-well tissue culture plates and treated with the native drug Ambroxol or the organelle-targeted Ambroxol derivative (M2781) at the multiple concentrations shown and incubated at 37° C./5% CO2 for 48 hours. Following drug treatment, a lysosomal-targeted fluorogenic GCase substrate (MarkerGene™ LysoLive™ Lysosomal β-Glucosidase Assay Kit, Product M2775) was then added to the wells according to the manufacturer's instructions to a final concentration of 5 uM and cells were incubated a further 16 hours. DRAQ7 (dead-cell stain) was then added to the cells to a final concentration of 3 uM and cells immediately analyzed using a BD Accuri C6 flow cytometer, capturing 10000 live cell events and the median fluorescence of the stained cell populations graphed as shown in FIG. 15.
For orientation: A flow cytometer gives signals particle by particle.

The subject of data set [2] is Glc-Cer and allied glycolipids in Gaucher patient cells. As to the kind of experiment: TLC analysis of the clearance of excess glycolipids after TPC treatment. In kind it is cell-based, human. The following applies: 10 uM final concentration, 3 days, FIG. 9.
Description: A series of targeted pharmacological chaperone derivatives were compared for their abilities to affect glycolipid biosynthesis by 1D-TLC.
Primary Human Fibroblasts from Gaucher I (F0361999) patients were obtained from Istituto Giannina Gaslini (Genova, Italy). Primary Human Fibroblasts from a healthy donor (AG06173) and Gaucher I (GM00372A) patients were obtained from the Coriell Institute for Medical Research (Camden, N.J.). Cells were cultured in Minimum Essential Medium Eagle supplemented with 10% FCS.
Immortalized B-lymphocytes from healthy donor (GM14643), Gaucher I (GM10870, GM10874), and Gaucher II (GM08752) patients were obtained from the Coriell Institute for Medical Research.
Cell labeling solutions were prepared by diluting substrate stock solutions in the appropriate medium for the cell line (see above) without serum. TPC treatment solutions were prepared by diluting stock solutions in complete media appropriate for the cell line. Cells were treated with either the targeted pharmacological chaperones (10 uM final concentration), miglustat (10 uM) or no drug (control) for 3 days prior to all analyses. For lipid analyses cells were counted on a TC-10 Automated Cell Counter (Bio-Rad, Hercules, Calif.) harvested by centrifugation (800×g, 5 min.) and subjected to one PBS wash (1 mL per sample) and centrifugation as above. […]

Non-standard residues stand in square brackets, D forms with d. Residues, ends and D or L forms follow the SMILES beside them. ξ: configuration not given here. *: point of attachment. X2 = Cn1cc(C2=C(c3ccc(NC(=O)CCCN4C(=O)CC(*)C4=O)cc3)C(=O)NC2=O)c2ccccc21; X1 = O=C(CCCN1C(=O)CC(*)C1=O)Nc1c(Br)cc(Br)cc1CN[C@H]1CC[C@H](O)CC1; ξC = NC(CS)C(=O)O; ξA = CC(N)C(=O)O

Six molecules from US10543282B2, “Targeted peptide conjugates” (Marker Gene Technologies, Inc., priority 2014, dated 2020) can be followed below.

Take `CC(=O)NC(CSC1CC(=O)N(CCCC(=O)Nc2ccc(C3=C(c4cn(C)c5ccccc45)C(=O)NC3=O)cc2)C1=O)C(=O)NC(Cc1ccccc1)C(=O)NC(Cc1ccccc1)C(=O)NC(CCCCN)C(=O)NC(CC(=O)O)C(=O)NC(CCC(=O)O)C(=O)NC(CC(C)C)C(=O)O` (stereo not drawn) [M2747] (Ac-C(X2)FFKDEL-OH; configuration not given here): the “lysosomal GCase activity compared to native drug SB216763” value in data set [1] is on record as “increased lysosomal GCase activity in lysosomes compared to the native drug”. Turning to `CC(=O)NC(CSC1CC(=O)N(CCCC(=O)Nc2c(Br)cc(Br)cc2CN[C@H]2CC[C@H](O)CC2)C1=O)C(=O)NCC(=O)NCC(=O)NCC(=O)NCC(=O)NCC(=O)NC(C)C(=O)O` (stereo partly drawn) [M2781] (Ac-[ξC](X1)GGGGG[ξA]-OH), in data set [1], the “lysosomal GCase activity, Ambroxol and its targeted derivative” value is given as “increased lysosomal GCase activity”.

Turning to `CC(C)CC(NC(=O)C(CCCNC(=N)N)NC(=O)C(CCC(N)=O)NC(=O)C(Cc1ccc(O)cc1)NC(=O)C(CC(=O)O)NC(=O)C(CO)NC(=O)C(C)NC(=O)CN)C(=O)NCC(=O)NC(CSC1CC(=O)N(CCCC(=O)Nc2ccc(C3=C(c4cn(C)c5ccccc45)C(=O)NC3=O)cc2)C1=O)C(=O)O` (stereo not drawn) [M2748] (H-GASDYQRLGC(X2)-OH; configuration not given here), the “lysosomal GCase activity compared to native drug SB216763” value in data set [1] was “increased lysosomal GCase activity in lysosomes compared to the native drug”. In the case of `Nc1c(Br)cc(Br)cc1CNC1CCC(O)CC1` (stereo not drawn) [Ambroxol, 4-(((2-Amino-3,5-dibromophenyl)methyl)amino)cyclohexanol, reference compound], the “lysosomal GCase activity, Ambroxol and its targeted derivative” value in data set [1] is listed as “slightly inhibitory toward lysosomal GCase activity”. Consider `CCCCN1C[C@H](O)[C@@H](O)[C@H](O)[C@H]1CO` [miglustat, N-butyl-deoxynojirimycin], for which, in data set [2], the “effect on glycolipid biosynthesis / clearance of excess glycolipids (Glc-Cer and allied glycolipids), 1D-TLC” value is listed as “moderate effect”. Turning to `CC(=O)NC(CSC1CC(=O)N(CCCC(=O)Nc2ccc(C3=C(c4cn(C)c5ccccc45)C(=O)NC3=O)cc2)C1=O)C(=O)NCC(=O)NCC(=O)NCC(=O)NCC(=O)NCC(=O)NC(C)C(=O)O` (stereo not drawn) [M2749] (Ac-C(X2)GGGGGA-OH; configuration not given here), in data set [1], the “lysosomal GCase activity compared to native drug SB216763” value is listed as “equivalent or reduced lysosomal staining/drug efficacy than native drug”.
